Data on two molecules can be found in PMC4973239, “Crystal structure of the human Tip41 orthologue, TIPRL, reveals a novel fold and a binding site for the PP2Ac C-terminus” (Scientific Reports, 2016).

The target of experiment [1] is TIPRLΔN, His tag removed with TEV protease (human) (UniProt O75663). In words: SEC; size exclusion profiles under different conditions (Fig. S1B), high concentration; HiLoad 26/60 Superdex 75 pg, Tris 20 mM pH 7.5, 100 mM NaCl, 10 mM β-mercaptoethanol.
In experiment [2] the target is T1, TIPRLΔN, His tag removed with TEV protease (human, UniProt O75663-1 16-272).
T1 construct: plasmid-derived residues left at the N-terminus after TEV cleavage; they form strand β1; TIPRL (TIP41, TOR signaling pathway regulator-like), human, NP_690866.1, with a 15-residue N-terminal deletion; TEV cleavage was usually incomplete; The last 16 C-terminal residues are disordered in the crystal; also called TIPRL (crystal structure); source: E. coli BL21(DE3), purified (Ni Sepharose, TEV …)
T1 sequence: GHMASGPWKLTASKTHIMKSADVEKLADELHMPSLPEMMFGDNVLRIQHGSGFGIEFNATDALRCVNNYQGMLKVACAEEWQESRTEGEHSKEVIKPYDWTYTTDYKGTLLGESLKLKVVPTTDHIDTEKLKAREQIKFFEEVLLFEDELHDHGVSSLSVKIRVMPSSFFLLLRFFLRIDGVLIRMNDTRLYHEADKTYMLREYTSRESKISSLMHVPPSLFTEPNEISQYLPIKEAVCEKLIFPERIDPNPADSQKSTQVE
In words: crystal structure; TIPRLΔN after TEV cleavage, 70–100 mg/ml; hanging drop at 18 °C, phosphate or SPG buffer pH 5.5–6.7, 2 to 3 M NaCl; two molecules in the asymmetric unit; 2.15 Å. The settings on record: both partners purified.

With “TIPRLΔN, His tag removed with TEV protease (from UniProt O75663-1 16-272) (domain or fragment)”, the stoichiometry N (usually a count of units in the complex or per binding partner) in experiment [1] was determined as 2.

B1: peptide generated after cleavage with the TEV protease (MGHHHHHHENLYFQ) (peptide)
peptide: MGHHHHHHENLYFQ
notes: hexa-histidine tag and TEV cleavage site of the vector pET-TEV, as released by TEV protease; only LYFQ (site on chain A) or ENLYFQ (site on chain B) is seen in the density; also called TEV site peptide; TEV-derived peptide; source: E. coli BL21(DE3)
For B1, in experiment [2], the binding result is recorded as “binds”.
